The record followed here is paper PMC6141180, “The TAB1-p38α complex aggravates myocardial injury and can be targeted by small molecules” (JCI Insight, 2018).

The chains are these.
B1: MKK3b peptide, unlabeled (peptide)
peptide: Ac-GKSKRKKDLRISCMSKP-NH2
notes: stretch of MKK3b, the most abundant splice variant of MAP2K3; also called unlabeled MKK3b
B2: fluorescein-labeled MKK3b peptide (peptide)
peptide: Ac-GKSKRKKDLRISCMSKPK(fluorescein)-NH2
notes: stretch of MKK3b, the most abundant splice variant of MAP2K3; added C-terminal lysine that carries the fluorescein; also called C-terminal labelled MKK3b peptide

fluorescein = fluorescein label (on the lysine ε-amine)

The target in the assay is T1, p38α (MAPK14), nonphosphorylated (mouse, UniProt P47811 1-360).
T1 construct: mouse p38α (MAPK14); Also used as the target of the functional rows on co-expressed p38α (E. coli pETDuet-1 first cloning site; HEK293 plasmid not described); source: E. coli Rosetta II (pETDuet-1), purified
T1 sequence (P47811 whole entry): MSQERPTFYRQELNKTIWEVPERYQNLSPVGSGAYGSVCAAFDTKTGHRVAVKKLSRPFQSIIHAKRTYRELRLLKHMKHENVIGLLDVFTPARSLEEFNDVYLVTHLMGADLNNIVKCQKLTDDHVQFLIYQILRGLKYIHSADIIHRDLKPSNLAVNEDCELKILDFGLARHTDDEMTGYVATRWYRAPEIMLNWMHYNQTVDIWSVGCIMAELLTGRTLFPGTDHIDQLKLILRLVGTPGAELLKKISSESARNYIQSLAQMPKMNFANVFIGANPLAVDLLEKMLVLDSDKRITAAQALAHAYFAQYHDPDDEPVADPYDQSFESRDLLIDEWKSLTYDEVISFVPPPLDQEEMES
The experiment in a line: fluorescence polarisation; competition: unlabeled peptide titrated into 2 nM fluorescein-labeled MKK3b peptide and 10 μM p38α; 50 mM HEPES pH 7.4, 10 mM MgCl2, 1 mM Chaps, 1 mM DTT, 1% DMSO; ambient temperature, 20 minutes. The note with it: both partners purified.
Turning to B1, the binding result is given as “binds”.
Then B2, with “binds”; and Ac-RVYPVSVPYSSAQSTSKTSVTLSLVMPSQ-NH2 (also called TAB-1 peptide; TAB1 peptide) [TAB1 (residues 384–412) peptide], with “binds”.
